{"source": "ChEMBL document CHEMBL1152693", "about": "“A rapid method for generation of selective Sox-based chemosensors of Ser/Thr kinases using combinatorial peptide libraries” (Bioorg Med Chem Lett, 2009)", "proteins": {"B1": {"name": "Aurora kinase A (Homo sapiens), O14965 (protein)", "chain": "MDRSKENCISGPVKATAPVGGPKRVLVTQQFPCQNPLPVNSGQAQRVLCPSNSSQRIPLQAQKLVSSHKPVQNQKQKQLQATSVPHPVSRPLNNTQKSKQPLPSAPENNPEEELASKQKNEESKKRQWALEDFEIGRPLGKGKFGNVYLAREKQSKFILALKVLFKAQLEKAGVEHQLRREVEIQSHLRHPNILRLYGYFHDATRVYLILEYAPLGTVYRELQKLSKFDEQRTATYITELANALSYCHSKRVIHRDIKPENLLLGSAGELKIADFGWSVHAPSSRRTTLCGTLDYLPPEMIEGRMHDEKVDLWSLGVLCYEFLVGKPPFEANTYQETYKRISRVEFTFPDFVTEGARDLISRLLKHNPSQRPMLREVLEHPWITANSSKPSNCQNKESASKQS"}}, "key": {"[1]": {"substrate": "CC(=O)N[C@@H](C)C(=O)NCC(=O)N[C@@H](CCCNC(=N)N)C(=O)N[C@@H](CCCNC(=N)N)C(=O)N[C@@H](Cc1ccc(O)cc1)C(=O)N[C@@H](CO)C(=O)N[C@@H](CC(C)C)C(=O)N[C@@H](CSCc1ccc2c(S(=O)(=O)N(C)C)ccc(O)c2n1)C(=O)N[C@H](C)C(=O)N[C@@H](C)C(N)=O", "experiment": "(§1) Activity of Aurora A"}, "[2]": {"substrate": "CC(=O)N[C@@H](C)C(=O)N[C@@H](CC(C)C)C(=O)N[C@@H](CCCNC(=N)N)C(=O)N[C@@H](CCCNC(=N)N)C(=O)N[C@@H](C)C(=O)N[C@@H](CO)C(=O)N[C@@H](CC(C)C)C(=O)N[C@@H](CSCc1ccc2c(S(=O)(=O)N(C)C)ccc(O)c2n1)C(=O)N[C@@H](C)C(=O)N[C@@H](C)C(N)=O", "experiment": "as §1"}, "[3]": {"substrate": "CC(=O)N[C@@H](C)C(=O)N[C@@H](CC(C)C)C(=O)N[C@@H](CCCNC(=N)N)C(=O)N[C@@H](CCCNC(=N)N)C(=O)N[C@@H](Cc1ccccc1)C(=O)N[C@@H](CO)C(=O)N[C@@H](CC(C)C)C(=O)N[C@@H](CSCc1ccc2c(S(=O)(=O)N(C)C)ccc(O)c2n1)C(=O)NCC(=O)N[C@@H](C)C(N)=O", "experiment": "as §1"}, "[4]": {"substrate": "CC(=O)N[C@@H](C)C(=O)N[C@@H](CC(C)C)C(=O)N[C@@H](CCCNC(=N)N)C(=O)N[C@@H](CCCNC(=N)N)C(=O)N[C@@H](Cc1ccccc1)C(=O)N[C@@H](CO)C(=O)N[C@@H](CC(C)C)C(=O)N[C@@H](CSCc1ccc2c(S(=O)(=O)N(C)C)ccc(O)c2n1)C(=O)N[C@@H](C)C(=O)N[C@@H](C)C(N)=O", "experiment": "as §1"}, "[5]": {"substrate": "CC(=O)N[C@@H](C)C(=O)NCC(=O)N[C@@H](CCCNC(=N)N)C(=O)N[C@@H](CCCNC(=N)N)C(=O)N[C@@H](Cc1ccc(O)cc1)C(=O)N[C@@H](CO)C(=O)N[C@@H](CC(C)C)C(=O)N[C@@H](CSCc1ccc2c(S(=O)(=O)N(C)C)ccc(O)c2n1)C(=O)N[C@H](C)C(=O)N[C@@H](C)C(N)=O", "experiment": "(§2) Ratio of Kcat to Km for Aurora A"}, "[6]": {"substrate": "CC(=O)N[C@@H](C)C(=O)N[C@@H](CC(C)C)C(=O)N[C@@H](CCCNC(=N)N)C(=O)N[C@@H](CCCNC(=N)N)C(=O)N[C@@H](C)C(=O)N[C@@H](CO)C(=O)N[C@@H](CC(C)C)C(=O)N[C@@H](CSCc1ccc2c(S(=O)(=O)N(C)C)ccc(O)c2n1)C(=O)N[C@@H](C)C(=O)N[C@@H](C)C(N)=O", "experiment": "as §2"}, "[7]": {"substrate": "CC(=O)N[C@@H](C)C(=O)N[C@@H](CC(C)C)C(=O)N[C@@H](CCCNC(=N)N)C(=O)N[C@@H](CCCNC(=N)N)C(=O)N[C@@H](Cc1ccccc1)C(=O)N[C@@H](CO)C(=O)N[C@@H](CC(C)C)C(=O)N[C@@H](CSCc1ccc2c(S(=O)(=O)N(C)C)ccc(O)c2n1)C(=O)NCC(=O)N[C@@H](C)C(N)=O", "experiment": "as §2"}, "[8]": {"substrate": "CC(=O)N[C@@H](C)C(=O)N[C@@H](CC(C)C)C(=O)N[C@@H](CCCNC(=N)N)C(=O)N[C@@H](CCCNC(=N)N)C(=O)N[C@@H](Cc1ccccc1)C(=O)N[C@@H](CO)C(=O)N[C@@H](CC(C)C)C(=O)N[C@@H](CSCc1ccc2c(S(=O)(=O)N(C)C)ccc(O)c2n1)C(=O)N[C@@H](C)C(=O)N[C@@H](C)C(N)=O", "experiment": "as §2"}}, "data": [{"protein": "B1", "values": [{"measurement": "Km", "setting": "[1]", "result": 65, "unit": "µM"}, {"measurement": "Vmax", "setting": "[1]", "result": 1.8, "unit": "µmol/min/mg"}, {"measurement": "Km", "setting": "[2]", "result": 298, "unit": "µM"}, {"measurement": "Vmax", "setting": "[2]", "result": 1.7, "unit": "µmol/min/mg"}, {"measurement": "Km", "setting": "[3]", "result": 57.1, "unit": "µM"}, {"measurement": "Vmax", "setting": "[3]", "result": 2.2, "unit": "µmol/min/mg"}, {"measurement": "Km", "setting": "[4]", "result": 152, "unit": "µM"}, {"measurement": "Vmax", "setting": "[4]", "result": 2.6, "unit": "µmol/min/mg"}, {"measurement": "kcat/Km", "setting": "[5]", "result": 83300, "unit": "M⁻¹ s⁻¹"}, {"measurement": "kcat/Km", "setting": "[6]", "result": 16700, "unit": "M⁻¹ s⁻¹"}, {"measurement": "kcat/Km", "setting": "[7]", "result": 117000, "unit": "M⁻¹ s⁻¹"}, {"measurement": "kcat/Km", "setting": "[8]", "result": 50000, "unit": "M⁻¹ s⁻¹"}]}]}
